From paper PMC13036090

B1: UGDH (uridine diphosphate glucose dehydrogenase): S350A (protein)
parent chain: MFEIKKICCIGAGYVGGPTCSVIAHMCPEIRVTVVDVNESRINAWNSPTLPIYEPGLKEVVESCRGKNLFFSTNIDDAIKEADLVFISVNTPTKTYGMGKGRAADLKYIEACARRIVQNSNGYKIVTEKSTVPVRAAESIRRIFDANTKPNLNLQVLSNPEFLAEGTAIKDLKNPDRVLIGGDETPEGQRAVQALCAVYEHWVPREKILTTNTWSSELSKLAANAFLAQRISSINSISALCEATGADVEEVATAIGMDQRIGNKFLKASVGFGGSCFQKDVLNLVYLCEALNLPEVARYWQQVIDMNDYQRRRFASRIIDSLFNTVTDKKIAILGFAFKKDTGDTRESSSIYISKYLMDEGAHLHIYDPKVPREQIVVDLSHPGVSEDDQVSRLVTISKDPYEACDGAHAVVICTEWDMFKELDYERIHKKMLKPAFIFDGRRVLDGLHNELQTIGFQIETIGKKVSSKRIPYAPSGEIPKFSLQDPPNKKPKV
B2: UGDH (uridine diphosphate glucose dehydrogenase): OGT co-expression (protein)
parent chain: B1 parent chain
B3: UGDH (uridine diphosphate glucose dehydrogenase): TMG (50 μM) (protein)
parent chain: B1 parent chain

Key:
[1] = NADH OD340 assay, Flag-purified protein; conditions: glycan lost; control: WT UGDH from HEK293T
[2] = steady-state kinetics, Michaelis-Menten fit; conditions: glycan lost; control: WT UGDH from HEK293T
[3] = Flag-KPNA2 pull-down, HEK293T, IFNγ; conditions: glycan lost; control: cells expressing UGDH WT
[4] = HABP immunofluorescence and competitive ELISA; conditions: glycan lost; control: UGDH-KO A549 rescued with WT UGDH
[5] = NADH OD340 assay, Flag-purified from HEK293T; conditions: glycan gained; control: WT UGDH, no OGT co-expression or TMG

Protein | enzymatic_activity [1] | enzymatic_activity, kcat_Km [2] | other: KPNA2-STAT1 association in cells [3] | other: cellular hyaluronic acid level [4] | enzymatic_activity [5]
B1 | decreases | decreases, 0.576 vs 5.07, Km value of 37.7 μM for the S350A, which was 3-fold higher than that of the WT with a Km value of 11.4 μM | increases | decreases | –
B2 | – | – | – | – | increases
B3 | – | – | – | – | increases
